Biological target: spike wt

B1: Tri-pdbody (designed binder)
LCB1 mini-binder coupled to a DNA handle that is hybridised to an arm of a 3-helix-bundle DNA nanostructure: DKEWILQKIYEIMRLLDELGHAEASMRVSDLIYEFMKKGDERLLEEAERLLEEVER
notes: also called 3-Arm; 3arm
Kd: 0.132 nM
